Measurements reported in patent US20230122503A1, “ANTI-PSMA RADIOCONJUGATES AND USES THEREOF” (Janssen Biotech, Inc., priority 2021, published 2023).

Biological target: human prostate-specific membrane antigen (PSMA), full length, on cells (human) (UniProt Q04609)
Test: cell-based or functional assay

human prostate-specific membrane antigen (PSMA), full length, on cells (human), sequence (Q04609 whole entry): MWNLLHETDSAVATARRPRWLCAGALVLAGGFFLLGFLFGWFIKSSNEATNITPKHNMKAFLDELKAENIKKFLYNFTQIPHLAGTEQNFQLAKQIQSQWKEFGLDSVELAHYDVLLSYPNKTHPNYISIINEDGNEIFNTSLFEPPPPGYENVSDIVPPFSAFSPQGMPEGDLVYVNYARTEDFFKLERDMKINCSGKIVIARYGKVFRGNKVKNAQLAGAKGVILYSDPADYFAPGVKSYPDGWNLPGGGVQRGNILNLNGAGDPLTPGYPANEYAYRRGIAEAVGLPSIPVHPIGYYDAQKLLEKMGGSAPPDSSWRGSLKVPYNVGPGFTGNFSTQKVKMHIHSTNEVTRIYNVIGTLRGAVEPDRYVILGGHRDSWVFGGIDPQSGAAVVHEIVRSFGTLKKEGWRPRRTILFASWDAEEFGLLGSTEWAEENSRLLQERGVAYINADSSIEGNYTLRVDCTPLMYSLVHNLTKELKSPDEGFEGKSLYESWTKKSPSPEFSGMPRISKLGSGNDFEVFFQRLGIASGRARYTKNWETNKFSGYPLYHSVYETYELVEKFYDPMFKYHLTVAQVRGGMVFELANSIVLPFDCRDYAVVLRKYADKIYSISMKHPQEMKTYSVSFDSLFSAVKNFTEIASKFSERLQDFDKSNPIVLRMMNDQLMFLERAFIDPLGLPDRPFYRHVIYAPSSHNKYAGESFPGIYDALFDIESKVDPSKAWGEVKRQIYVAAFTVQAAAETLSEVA

In the case of “Isotype control conjugated to MMAF (antibody)”, the IC25 (cytotoxicity on 22RV1 cells, MMAF ADC, DAR 4.3, 6 d) is reported as > 100 nM.

Substance “Isotype control conjugated to DX8951 (antibody)” has an IC50 (cytotoxicity on 22RV1 cells, DX8951 ADC, DAR 8, 6 d) of 57.2 nM.
